± gives the uncertainty stated by the source.

This note sets out measurements from the supplement of paper PMC12042874.

This series is described as follows: amyloid nucleation score (Sup35N fusion, yeast selection) (log enrichment); library NNK2; higher = more nucleation; inactive = no reads after selection. The procedure, abridged: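 Growth for 7 days at 30°C on medium lacking adenine and uracil followed a 24-hour induction with 100 μM copper sulfate of psi-negative yeast expressing peptides of 20 random codons fused to Sup35N. Input and output plasmid inserts were sequenced with Illumina, and sequences with under 100 input reads were excluded. Nucleation score is the DiMSum log enrichment of output over input reads, centred on the mode score of non-aggregating sequences.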
In the case of CPDHNGRFGSWVGEYHVGLS, the amyloid nucleation score came out at 1.43 ± 0.17. Take MANYYLCFYFVLVMRQMKFT: the amyloid nucleation score is -1.18 ± 0.62.

FVLSTVRLSAASAPMRFTHL yielded an amyloid nucleation score of 0.468 ± 0.74. Under HVVLTLGLRISQHRLLRYKK stands 5.64 ± 0.095; under LVHRCRYGLLTGLFEGQPVM, -1.12 ± 1.1; under IFVCAMV, 0.395 ± 0.65. In the case of RITIAQHTDSKGDA it was -0.01 ± 0.61; in that of YMTWQFITACMLTCSKSILS, 0.264 ± 0.49; in that of TDLIINMSQNR, 2.42 ± 0.1. TNTLMGPFWLSWSNVQPNRS: the amyloid nucleation score was -0.787 ± 0.54. In the case of DEWQRGRTLSDTF it was -0.295 ± 0.76. FLYQEPSSCVTTAKISGLMA: the amyloid nucleation score entry was “inactive”.

As to VAWITLMIPHIYFQSGILWD, the amyloid nucleation score is -1 ± 0.25. Under RCKWVRGVSRMPNHWN stands 0.779 ± 0.4; under RTRTYL, “inactive”; under GKTYLDKLMGGLHRQDPGTR, 1.28 ± 0.53. Under RNLYGHISVIFCGDNFDGSC stands 7.15 ± 0.077. In the case of SEVCNCVGLGSGCDVYGA it was 3.17 ± 0.094; in that of WVPRRSSLCGAILYLGTKSM, -0.965 ± 0.78; in that of LRADLYCFACLNAPSC, 5.89 ± 0.091. Take VGSGRLTWT: the amyloid nucleation score stood at 0.917 ± 0.28. Regarding KAVVMLI, the amyloid nucleation score was -1.09 ± 0.31.

Take PGMPARVHTCLSAMTYNFMC: the amyloid nucleation score is -0.901 ± 0.44. In the case of YLNGSSTTVSYRCWAMACSN it was -0.448 ± 0.76; in that of SRHTIVTGRWLFRDYQSLLW, 0.19 ± 1.1.

As to LFSVLL, the amyloid nucleation score was -0.916 ± 1. Under SHSVKVMFNGLRVRL stands -0.216 ± 0.63. In the case of FNYDSLVSTRAYPFWTVTVF it was 1.52 ± 0.43.

Consider CIKLRR, for which the amyloid nucleation score entry is “inactive”. Under VTLNTVDFPTGICKSSGARW stands -0.236 ± 0.42; under YVQSVHFSSMILQINPGSFN, 4.94 ± 0.065; under RLLAVPLVRFRC, -0.23 ± 0.79. As to ISVDTRFGLNVCFEGCCAYR, the amyloid nucleation score was 7.449 ± 0.062.

Substance RTDSGTMMCRVWAMYPESTS yielded an amyloid nucleation score of 1.22 ± 0.41. The substance WYTPRLRMLHLAEKGVRVVV gave an amyloid nucleation score of 4.31 ± 0.089. Under VDVHIIIMKPDSWVCPNRCS stands “inactive”; under RCSTGRVFSSLDEVLLSRWG, 4.64 ± 0.048; under VHRLRMGRVWFDKDSDVVGK, 0.148 ± 1. Under GLKMLFNVNLQDM stands -0.368 ± 1. Under NMNLVILDTHN stands 2.86 ± 0.13; under FLNESGSFWCSGFLIWVMRM, -0.568 ± 0.76; under SENFLYLDVVFMCHSMIDRG, 0.131 ± 0.54. With LNLLNPWYSCKQSRVYNGYI, the amyloid nucleation score was -1.31 ± 0.54. Under WTLYKTMIMVSSVPFIIKIC stands -1.2 ± 0.76; under ARCNCL, 0.559 ± 0.49; under SFGMQTEMYPGSIGLV, “inactive”. Under RLSSYILAIYSNRAKYF stands 0.412 ± 0.5. For LDITVCMRFKAPAIIWAYYF, the amyloid nucleation score was -0.657 ± 0.48. In turn, RMDTGNLYVFLMKCFNMAYA displayed an amyloid nucleation score of 5.2 ± 0.091. Under IYFFSVF stands “inactive”; under IRQFDIDITNARNKG, -1.62 ± 0.62. The substance NCLLVLHFG registered an amyloid nucleation score of 6.91 ± 0.073. Under CNTCLLSFG stands 0.814 ± 0.25; under IPNVPCIRGVSYSDFFTSSY, -0.044 ± 0.61; under FCMADVYSGTLRNNYHTSEV, -0.986 ± 0.31. Under MLCGINGMMSSTLVCGRAII stands -0.161 ± 0.65. In the case of CHISLTKWCRFRVV it was -0.014 ± 0.76; in that of PFAWANKYTIQPINPYRGAA, -0.552 ± 0.41; in that of HHGQTHHLMWNWIF, 4.27 ± 0.1.

Take SCFPM: the amyloid nucleation score was -1.67 ± 0.62. Substance YRISMTAWSGRLSG gave an amyloid nucleation score of 4.03 ± 0.043. In the case of FSVLMEDHSRFIF it was “inactive”; in that of GIFTTWNRISRRLCLRVHYP, -0.497 ± 0.34. Under TLVRSVQLCCGISAWNMEAR stands 11.43 ± 0.031; under SKFYLKRKSDISYIYASPWR, 1.94 ± 0.06; under TVWRARLGSPCGFLCVDRSW, 0.414 ± 0.53. Under YFNSLLPLLSPFYRPNIALL stands -0.299 ± 0.56; under DYGLVCY, 0.277 ± 0.22. In turn, VTVTFIAEHSIWPSVNNCFV registered an amyloid nucleation score of 1.71 ± 0.15. As for TETTVFILLFWLLVILGRVH, the amyloid nucleation score entry was “inactive”. Substance TYGLVTRTGAV gave an amyloid nucleation score of 0.247 ± 0.43. As for FSFIGFLNRNKSAALCKMDI, the amyloid nucleation score is -1.16 ± 0.76. In the case of IVFVLLSYYLL it was 3.4 ± 0.037; in that of ILAVKHFRFMVGSKISGGSG, 2.15 ± 0.094; in that of FLSDATAYH, “inactive”. In the case of YIIGSNEFSEHETDLNGYQT, the amyloid nucleation score was -0.938 ± 0.62. In the case of SLTASCI, the amyloid nucleation score is -0.471 ± 0.76.

In the case of LYWNVAGLGPQYKSLCLGFR, the amyloid nucleation score was -0.753 ± 0.56. On to SSFQEC, for which the amyloid nucleation score is -1.2 ± 0.62.

The substance HFFTQY displayed an amyloid nucleation score of 2.95 ± 0.1.

The substance IPLRHVLLVMQCRPAL had an amyloid nucleation score of 0.915 ± 0.23. Under LGYGWFNVLTYTTI stands -0.209 ± 0.65; under SMCGSNAFLDTDRDVRHDDF, -1.05 ± 0.78; under LYVGYSDMPVWSPASVCISI, 0.001 ± 0.65. In turn, VGICFDNRMVTWHLSDRQSP showed an amyloid nucleation score of 3.58 ± 0.072. In the case of WFRRQSLGWVRANGPVMRIS, the amyloid nucleation score was 0.035 ± 0.34. In the case of WSKEFEIGSNHSKSNTRCGR it was 0.244 ± 0.46. In the case of LYLSFKGRREFFVIYLKFHS it was “inactive”; in that of LIPVTGAMGSN, 0.183 ± 0.4. With FAWGPFA, the amyloid nucleation score was -0.557 ± 0.37. As to VLRHLD, the amyloid nucleation score was found to be 0.44 ± 0.54. In the case of HQVLYTIAISFTIELAVIIA it was “inactive”. Turning to GVNRAWL, the amyloid nucleation score worked out at 3.35 ± 0.06. WHNYSYSRGIRRCHQMKHKR registered an amyloid nucleation score of 1.46 ± 0.15. Under LGEIVHLTVDASIRSSDR stands 5.13 ± 0.088.

As to GQLSVVKCRSY, the amyloid nucleation score amounted to 1.14 ± 0.29. On to QSPNHVHSLRPGLDQLSALP, for which the amyloid nucleation score is -0.08 ± 0.39. As to IQWYNLYTENRMISKLRGSW, the amyloid nucleation score is -0.547 ± 1.1. Under GYNGMGRCINWVRKYRWLLW stands 5.355 ± 0.033; under CLDPTDTMMRW, 0.82 ± 0.3; under RVGIH, 1.52 ± 0.22. Under VHIMEDVMRRFCDRCTCRTW stands 0.562 ± 0.44. Take DRLMLALGKGHGFEIGGPVL: the amyloid nucleation score amounted to 1.37 ± 0.39. Under FCGQKTNFNCLDETLLIR stands 1.09 ± 0.59; under YKLAWARYGCIAVCTMLRFP, 0.102 ± 1.1; under KNCVHE, -0.076 ± 0.79.

With VNKSSERNESIGRFRTCYRR, the amyloid nucleation score turned out to be 0.345 ± 0.8.

On to EMLYTSFILSLWNNLDFILS, for which the amyloid nucleation score was -0.452 ± 0.63. With TKRAIDWA, the amyloid nucleation score came to 0.669 ± 0.8. In the case of KYMCSLMEATFLYNGSALRC it was -1.6 ± 1.1.

For MLLVVYGQVRTISLLRRRSS, the amyloid nucleation score is -0.243 ± 0.74.

For SFNEMILHLIPRSCSLKKYI, the amyloid nucleation score is -0.441 ± 0.28.

With IDSADVSIVRCKTQVRRIMR, the amyloid nucleation score came out at 5.62 ± 0.063. In the case of LNISYSAH it was 0.264 ± 0.65; in that of ELRSLAGIVSWLSLRYPPTE, 2.42 ± 0.23; in that of TPCIMWKLGLFFVDCCFGFP, 4.1 ± 0.12.

VTVTYLWIC: the amyloid nucleation score came out at 1.88 ± 0.28. RVSSYSQATKKLKHERFGDV: the amyloid nucleation score was -0.533 ± 0.44. Turning to FRLSHFILVSHYLNNYEDSF, the amyloid nucleation score entry was “inactive”. Under NSRTGTLREVHYLPDST stands 5.1 ± 0.054; under SSYSDLIQLNSNWMWCICLL, 8.101 ± 0.06; under AYSIFVFYTYVTTHLRHITR, “inactive”. For DWPRLLNFWRY, the amyloid nucleation score was -0.284 ± 1.1. In the case of PWCGRSMYSVSGKGQMWMRA it was 1.03 ± 0.4; in that of YPNSLYFRPYAFILTEMSHH, “inactive”; in that of LHGGVLFKTSTMAGFR, -0.501 ± 0.54. For the substance ALPCRLISFFALVGWIVG, the amyloid nucleation score was -0.088 ± 0.49. In the case of VHLNTFATFMGWLTDSWLGV it was “inactive”; in that of CTKDTHNRVGHLRSHVDGSL, 0.572 ± 0.8. In the case of NCNFSLEGHYCTFIKFHWTV it was 3.23 ± 0.097; in that of FLMSTSLRSCICCVLLPSDN, 8.908 ± 0.032. The substance TKATRINEGLLNLYALFGGK returned an amyloid nucleation score of 0.974 ± 0.17. The substance RRSNLGNWFDV showed an amyloid nucleation score of 0.285 ± 1. In the case of VDCGFRRLFVFTNSIYCVCR, the amyloid nucleation score turned out to be 5.321 ± 0.053. Under HLCGC stands “inactive”; under SRLPLTSMTNSHSWA, 0.363 ± 0.43; under LSCHSDITILHDYTNLLSFI, -0.007 ± 0.63. LSIVKFI: the amyloid nucleation score turned out to be 1.3 ± 0.12. As for GKGANARLCIRYDITAVEGT, the amyloid nucleation score turned out to be 1.61 ± 0.44. In the case of YVLRQEVCIIPINSMFVNSF it was 6.091 ± 0.045.
